From the Immune Epitope Database (IEDB) come the findings set out here.

A value given as a limit tells only on which side of the number the result lay.

Experiment [1] concerns the target HLA-C*06:02. The experiment can be described thus: IEDB peptide-MHC binding, purified MHC/direct/fluorescence; filed as Kd, often an IC50 or EC50 that approximates it; ≥ and ≤ were set here for values at or beyond the usual limits of such assays. As to conditions: source organism: Yellow fever virus.
The target of experiment [2] is HLA-C*14:02. Described as above. As to conditions: source organism: Yellow fever virus.
The target of experiment [3] is HLA-C*15:02. The description is as above. As to conditions: source organism: Yellow fever virus.
Experiment [4] has as its target HLA-B*15:42. The experiment can be described thus: IEDB peptide-MHC binding, purified MHC/competitive/fluorescence; filed as Kd, often an IC50 or EC50 that approximates it; ≥ and ≤ were set here for values at or beyond the usual limits of such assays.
For experiment [5], the target named is HLA-B*83:01. The experiment is described as above.
The target of experiment [6] is HLA-B*45:06. Described as above.
Experiment [7] deals with HLA-B*44:02. The experiment is described as follows: IEDB peptide-MHC binding, purified MHC/direct/fluorescence; filed as Kd, often an IC50 or EC50 that approximates it; ≥ and ≤ were set here for values at or beyond the usual limits of such assays.
Experiment [8] concerns the target HLA-B*15:01. The description is as above.
Experiment [9] concerns the target HLA-B*48:01. The experiment is described as above.
The target of experiment [10] is HLA-B*46:01. Described as above.
For experiment [11], the target named is HLA-A*03:01. The description is as above.
In experiment [12] the target is HLA-B*15:09. Described as above. The settings on record: source organism: West Nile virus strain PTRoxo.
In experiment [13] the target is HLA-B*18:01. Described as above.
Experiment [14] addresses HLA-B*27:05. The description is as above.
Experiment [15] concerns the target HLA-C*12:03. The experiment is described as above. As to conditions: source organism: West Nile virus.
The target of experiment [16] is HLA-C*05:01. The experiment is described as above.
Experiment [17] addresses HLA-A*31:01. The description is as above.
Experiment [18] has as its target HLA-B*57:01. Described as above.
Experiment [19] deals with HLA-B*07:02. The description is as above.
For experiment [20], the target named is HLA-B*40:01. The description is as above.
For experiment [21], the target named is HLA-B*58:01. The experiment is described as above.
Experiment [22] concerns the target HLA-A*11:01. Described as above.
Experiment [23] has as its target HLA-C*07:02. Described as above. As to conditions: source organism: Influenza A virus (A/Fort Monmouth/1/1947-mouse adapted(H1N1)).
In experiment [24] the target is HLA-A*02:01. The description is as above. The settings on record: source organism: Influenza A virus (A/quail/Hong Kong/FY298/00(H9N2)).
Experiment [25] addresses HLA-A*01:01. The experiment is described as above.
The target of experiment [26] is HLA-B*08:02. The description is as above. The settings on record: source organism: Influenza A virus(A/swine/Henan/5/2004(H9N2)).
The target in experiment [27] is HLA-A*26:01. The experiment is described as above. The settings on record: source organism: Influenza A virus(A/swine/Henan/5/2004(H9N2)).
For experiment [28], the target named is HLA-A*24:02. The experiment is described as above. The settings on record: source organism: Influenza A virus (A/quail/Hong Kong/FY298/00(H9N2)).
In experiment [29] the target is HLA-A*24:03. The description is as above. The settings on record: source organism: Influenza A virus (A/quail/Hong Kong/FY298/00(H9N2)).
Experiment [30] has as its target HLA-A*68:02. The experiment is described as follows: IEDB peptide-MHC binding, purified MHC/competitive/fluorescence; filed as Kd, often an IC50 or EC50 that approximates it; ≥ and ≤ were set here for values at or beyond the usual limits of such assays. As to conditions: source organism: Influenza A virus (A/Fort Monmouth/1/1947-mouse adapted(H1N1)).
Experiment [31] concerns the target HLA-B*08:01. The description is as above.
In experiment [32] the target is HLA-B*15:17. The description is as above.
Experiment [33] addresses HLA-A*02:06. The description is as above.
For experiment [34], the target named is HLA-A*69:01. The experiment can be described thus: IEDB peptide-MHC binding, purified MHC/direct/fluorescence; filed as Kd, often an IC50 or EC50 that approximates it; ≥ and ≤ were set here for values at or beyond the usual limits of such assays.
For experiment [35], the target named is HLA-B*51:01. The description is as above. The settings on record: source organism: Mycobacterium tuberculosis.
Experiment [36] deals with HLA-B*39:01. The experiment is described as above. As to conditions: source organism: Mycobacterium tuberculosis str. Haarlem.
Experiment [37] concerns the target HLA-A*30:01. The experiment can be described thus: IEDB peptide-MHC binding, purified MHC/competitive/fluorescence; filed as Kd, often an IC50 or EC50 that approximates it; ≥ and ≤ were set here for values at or beyond the usual limits of such assays. As to conditions: source organism: Mycobacterium tuberculosis variant bovis BCG str. Pasteur 1173P2.
Experiment [38] deals with HLA-A*02:01. Described as above. As to conditions: source organism: Mycobacterium tuberculosis variant bovis BCG str. Pasteur 1173P2.
The target in experiment [39] is HLA-A*29:02. The experiment is described as follows: IEDB peptide-MHC binding, purified MHC/direct/fluorescence; filed as Kd, often an IC50 or EC50 that approximates it; ≥ and ≤ were set here for values at or beyond the usual limits of such assays. As to conditions: source organism: Yellow fever virus 1899/81.
Setting [40] is: source organism: Yellow fever virus.
The mark [41] stands for this setting: source organism: West Nile virus.
The mark [42] stands for this setting: source organism: Influenza A virus (A/quail/Hong Kong/FY298/00(H9N2)).
Setting [43] is: source organism: Influenza A virus (A/Fort Monmouth/1/1947-mouse adapted(H1N1)).
The mark [44] stands for this setting: source organism: Mycobacterium tuberculosis.
Where [45] appears, read: source organism: Mycobacterium tuberculosis variant bovis BCG str. Pasteur 1173P2.
Setting [46] is: source organism: Yellow fever virus 1899/81.

As for RWFVRNPFF, the Kd (usually the constant that tells how readily two partners part at equilibrium) was ≥ 20 µM in [1]; 0.278 µM in [2]; ≥ 20 µM in experiment [3]; ≥ 5 µM in experiment [4] (setting [40]); ≥ 5 µM in experiment [5] (setting [40]); ≥ 5 µM in experiment [6] (setting [40]).

In the case of FVDVGVSAL, the Kd is ≥ 20 µM in experiment [7] (setting [41]); ≥ 20 µM in experiment [8] (setting [41]); ≥ 20 µM in experiment [9] (setting [41]); ≥ 20 µM in [10] (setting [41]); ≥ 20 µM in experiment [11] (setting [41]); 2.2 µM in experiment [12]. The Kd in experiment [13] (setting [41]) was ≥ 20 µM; in experiment [14] (setting [41]), ≥ 20 µM; in [15], ≥ 20 µM; in [16] (setting [41]), ≤ 0.001 µM; in experiment [17] (setting [41]) it was ≥ 20 µM; in experiment [18] (setting [41]), ≥ 20 µM. For the same sequence, the Kd in experiment [19] (setting [41]), in experiment [20] (setting [41]), in experiment [21] (setting [41]) and in experiment [22] (setting [41]) was ≥ 20 µM in each case.

SYLIRALTL: the Kd in experiment [8] (setting [42]) was ≥ 20 µM; in [11] (setting [42]), ≥ 20 µM; in [23], 0.055 µM; in experiment [24], ≥ 20 µM; in experiment [25] (setting [42]), ≥ 20 µM; in [13] (setting [42]), ≥ 20 µM. Besides, the dissociation constant Kd in [14] (setting [42]), in experiment [17] (setting [42]), in experiment [26], in [27], in experiment [18] (setting [42]) and in [19] (setting [42]) was ≥ 20 µM each time. Further, the Kd in [21] (setting [42]) was ≥ 20 µM; in experiment [28] it was 0.0039 µM; in experiment [29], ≤ 0.001 µM; in [22] (setting [42]), ≥ 20 µM; in experiment [30], 1.19 µM; in [31] (setting [43]), 1.72 µM. Besides, the Kd in experiment [32] (setting [43]) turned out to be 0.196 µM; in experiment [33] (setting [43]) it was 1.41 µM.

Turning to RPRLHSISF, the Kd in experiment [8] (setting [44]) is 0.079 µM; in experiment [9] (setting [44]), ≥ 20 µM; in experiment [10] (setting [44]) it was ≥ 20 µM; in experiment [11] (setting [44]), ≥ 20 µM; in experiment [34] (setting [44]) it was ≥ 20 µM; in experiment [25] (setting [44]), 1.31 µM. For the same sequence, the Kd in experiment [14] (setting [44]), in [17] (setting [44]), in [35], in experiment [18] (setting [44]), in experiment [20] (setting [44]) and in experiment [21] (setting [44]) was ≥ 20 µM throughout. The Kd in [36] was ≥ 20 µM; in [22] (setting [44]) it was ≥ 20 µM; in experiment [37] it was ≥ 20 µM; in [38] it was ≥ 20 µM; in [4] (setting [45]) it was ≥ 5 µM; in experiment [31] (setting [45]), 0.0159 µM. Moreover, the Kd in [32] (setting [45]) was ≥ 20 µM; in experiment [5] (setting [45]), 0.045 µM; in experiment [33] (setting [45]) it was ≥ 20 µM; in [6] (setting [45]), ≥ 5 µM.

Consider RADEINAIL, for which the Kd in [7] (setting [46]), in experiment [8] (setting [46]), in [10] (setting [46]), in [11] (setting [46]), in experiment [34] (setting [46]) and in experiment [25] (setting [46]) was ≥ 20 µM throughout. The equilibrium dissociation constant (Kd) in experiment [39] is ≥ 20 µM; in [13] (setting [46]) it was ≥ 20 µM; in experiment [14] (setting [46]), ≥ 20 µM; in [16] (setting [46]), ≤ 0.001 µM; in experiment [17] (setting [46]), ≥ 20 µM; in [18] (setting [46]), ≥ 20 µM. For the same sequence, the Kd in [22] (setting [46]) is ≥ 20 µM.
